The text below walks through data of patent US20210379147A1, “METHOD AND SYSTEM FOR TREATING CANCER UTILIZING TINAGL1” (The Trustees of Princeton University, priority 2018, published 2021).

Series [1] has as its target T1, EGFR extracellular domain recombinant protein (Homo sapiens, UniProt P00533).
T1 construct: EGFR extracellular domain recombinant protein was purchased from Novoprotein (CI61); purchased Novoprotein CI61
Put plainly: IP between recombinant Tinagl1 and recombinant His-tagged EGFR protein. The series is classed as binding. Particulars: 5 μg each protein in PBS, IP with His antibody. As for the experimental part:
FIG. 13B is an image of a WB assay where 5 μg each of recombinant His-tagged EGFR protein and recombinant Tinagl1 protein were added into 1.5 ml of PBS. 100 μl of combined solution was transferred to a new tube and served as input, and the rest was split into two tubes and IP with 2 μg of IgG or His antibody respectively; the IP samples were washed with PBS and analyzed with WB.
Immunoprecipitation (IP) and western blotting (WB) analysis. For an IP experiment, cells were collected in 1.5 ml EP tube when they reached to 100% confluency in 10 or 15 cm dish as indicated. 1 ml of IP lysis buffer (20 mM Tris pH7.4, 0.15 M NaCl, 1 mM EDTA, 1 mM EGTA, 1% Tx-100) with complete protease inhibitor cocktail (Roche, 14493900) was added and put on ice for 20 min. Meanwhile, culture media was 100× concentrated and mixed with the cell lysates. The samples were centrifuged, 100 μl of the supernatant was transferred to a new tube as input, and the rest was incubated with 2 μg of IgG, anti-HA, anti-Myc, anti-Integrin subunit β1, anti-Integrin subunit α5 or anti-EGFR (as indicated in each experiment) overnight at 4° C. (recombinant proteins may be added at this step as indicated in each experiment). 30 μL of protein A/G agarose beads (Santa Cruz, sc-2003) was then added in each sample for another 2 hours at 4° C. the next day. […] The IP samples were washed with PBS and analyzed with WB. […]

A short description of series [2]: Toxicity assessment in r-Tinagl1 treated mice (body weight, CBC, H&E and Alcian blue staining, ALT, AST). The series is classed as in vivo. Particulars: ALT and AST activity. The text has this:
(§1) To test if recombinant Tinagl1 protein (r-Tiangl1) treatment would slow tumor progression, full length recombinant human Tinagl1 with 6×His tag at the C-terminus (r-Tinagl1) was expressed in HEK293T cells and r-Tinagl1 was purified from the culture media using Ni^2+-NTA purification system. r-Tinagl1 was used to treat orthotopically implanted mammary tumors.

Series [3] has as its system SUM159-M1a tumor cells. Put plainly: 3D in vitro tumor sphere growth assay. Format: cell-based, human. On the procedure: To directly test the tumor-specific inhibitory effects of Tinagl1, a 3D in vitro tumor sphere growth assay was performed. Tinagl1-overexpressing SUM159-M1a tumor cells formed significant fewer and smaller spheres.
Series [4] concerns FAK. Briefly: FN- or EGF-dependent FAK phosphorylation (WB). Format: cell-based. The note with it: tested at 10, 100, 1000 and 10,000 ng/mL. The text has this:
For WB analysis, cells were collected and lysed with IP lysis buffer described above. After boiled with SDS laemmli buffer, the samples were resolved with SDS-PAGE gel and immunoblotted with standard protocols.
FN is the major ligand for integrin α5β1 and αvβ1, and triggers integrin/FAK signal pathway after binding. FN was employed to evaluate the effects of Tinagl1 on the integrin/FAK pathway. […] Likewise, the activation of FAK by FN was attenuated in the cells overexpressing Tinagl1.

The target of series [5] is T2, Tinagl1-EGFR interaction (Homo sapiens, UniProt P00533).
T2 construct: host or cells: HEK293T
Briefly: Competition IP for Tinagl1-HA / GFP-EGFR interaction in HEK293T lysate. The series is classed as binding.
Description: FIG. 13C is an image of IP and WB assays where HEK293T cells co-expressing Tinagl1-HA and GFP-EGFR were lysed and divided into multiple groups, then PBS or indicated amount of proteins was added into each group, then IP followed by WB assays were performed.
FIG. 13D is a graph quantifying the ability of the indicated protein to compete with Tinagl1-EGFR interaction, by measuring GFP-EGFR level in the groups from FIG. 13C.
Whether Tinagl1 inhibits EGFR activation in a similar manner was tested. […] Whether Tinagl1 and EGF compete with each other to interact with EGFR was tested.

The test system of series [6] is LM2 cells. Briefly: Experimental lung metastasis after intravenous injection of LM2 cells, BLI and nodule count. The series is classed as in vivo, NSG mice. As for the experimental part: FIG. 6 is a graph of lung metastasis burden measured by BLI every week, for NSG mice under one of three treatment regimens: 1) PBS immediately following injection (510), 2) PBS for the first two weeks followed by r-Tinagl1 treatment (520), and 3) r-Tinagl1 immediately after injection (530).
Referring to FIG. 6, to further evaluate the therapeutic potential of r-Tinagl1 treatment during metastasis, LM2 cells were injected intravenously to generate lung metastasis, and the mice were separated into three distinct treatment groups: 1) PBS immediately following injection (510), 2) PBS for the first two weeks followed by r-Tinagl1 treatment (520), and 3) r-Tinagl1 immediately after injection (530).
(§2) For xenograft studies, 8-weeks immunocompromised NOD Scid Gamma (NSG) or immunocompetent FVB females were used. Cells were suspended in 10 μl of PBS for mammary gland injection (MFP), or were suspended in 100 μl of PBS for intravenous injection. For human patient-derived xenograft (PDX, HCL001, kindly provided by Dr. Alana Welm) study, we followed the standard protocol for PDX transplantation, maintenance and digestion of the tumors (DeRose et al., 2011). 2×10^4 cells were suspended in 10 μl of PBS and subjected to MFP injection. For recombinant Tinagl1 (r-Tinagl1), ATN-161, Erlotinib treatments, the mice were injected with 30 μg/mouse, 30 μg/mouse, and 100 mg/kg respectively twice per week via tail-vein. Primary tumors were quantified once per week via caliper measurement. All cell lines used for lung metastasis experiments were stably labeled with a firefly luciferase expressing vector and were monitored by weekly bioluminescent imaging (BLI). At protocol-defined endpoints, lungs were dissected and fixed in bouin's solution and the metastatic lesions were counted.

For series [7], the system named is orthotopically implanted mammary tumors. Briefly: r-Tinagl1 treatment of orthotopically implanted mammary tumors. Format: in vivo, mice. Particulars: continuous treatment of r-Tinagl1 for 7 weeks.
Description: as §1
as §2, with “For recombinant Tinagl1 (r-Tinagl1), ATN-161, Erlotinib treatments, the mice were injected with 30 μg/mouse, 30 μg/mouse, and 100 mg/kg respectively twice per week via tail-vein.” left out

B1: r-Tinagl1: full length recombinant human Tinagl1 with 6×His tag at the C-terminus [SEQ ID NO.: 24], expressed in HEK293T cells (protein, listed as Homo sapiens)
chain: MWRCPLGLLLLLPLAGHLALGAQQGRGRRELAPGLHLRGIRDAGGRYCQEQDLCCRGRADDCALPYLGAICYCDLFCNRTVSDCCPDFWDFCLGVPPPFPPIQGCMHGGRIYPVLGTYWDNCNRCTCQENRQWQCDQEPCLVDPDMIKAINQGNYGWQAGNHSAFWGMTLDEGIRYRLGTIRPSSSVMNMHEIYTVLNPGEVLPTAFEASEKWPNLIHEPLDQGNCAGSWAFSTAAVASDRVSIHSLGHMTPVLSPQNLLSCDTHQQQGCRGGRLDGAWWFLRRRGVVSDHCYPFSGRERDEAGPAPPCMMHSRAMGRGKRQATAHCPNSYVNNNDIYQVTPVYRLGSNDKEIMKELMENGPVQALMEVHEDFFLYKGGIYSHTPVSLGRPERYRRHGTHSVKITGWGEETLPDGRTLKYWTAANSWGPAWGERGHFRIVRGVNECDIESFVLGVWGRVGMEDMGHHVDHHHHHH
modifications: C-terminal 6xHis tag
On to B1, for which the “direct interaction with EGFR” value in series [1] is given as “confirmed the direct interaction”. The “hematologic, GI tract, and liver toxicity” value in series [2] was “no significant hematologic, GI tract, and liver toxicity”; in series [2] (listed as recombinant Tinagl1 protein) it was “without causing significant toxicity”. Besides, in series [3], the “number and size of tumor spheres” value was “reduced the number and size of tumor spheres”. In addition, in series [4], the “FN-dependent activation of FAK signaling (FAK phosphorylation at Tyr397)” value is on record as “significantly reduced FN-dependent activation of FAK signaling”. In series [5], the “competition with Tinagl1-HA to interact with EGFR” value is on record as “competed”. Moreover, the “metastatic growth (BLI)” value was “dramatically decreased metastatic growth” in series [6] (PBS for the first two weeks followed by r-Tinagl1 treatment) and “significantly reduced metastatic growth” in series [6] (r-Tinagl1 immediately after injection (continuous)). Further, in series [6] (both r-Tinagl1 treatment groups, end of experiment), the “number of lung metastasis nodules” value is recorded as “significantly reduced number of lung metastasis nodules”. Further, the primary tumor growth entry in series [7] is “significantly inhibited”. In addition, the spontaneous lung metastasis result in series [7] is listed as “significantly inhibited”.
